Where two headings read alike, the source gives them in different places.
Key:
Conditions in all cases: remark: other sources report otherwise
[1] = molecular target: T1, CV S-protein construct 6 trimer TP31001F (SARS-CoV-2), P0DTC2; assay: SPR
[2] = molecular target: SARS-COV2-S1 RBD (mouse IgG2Fc tag) (SARS-CoV-2), P0DTC2
[3] = molecular target: T1, CV S-protein construct 6 trimer …; assay: SPR; remark: listed apart in the source
[4] = molecular target: SARS-COV2-S1 RBD (mouse IgG2Fc tag) (SARS-CoV-2), P0DTC2; remark: listed apart in the source
[5] = molecular target: SARS-COV2-S1 RBD (mouse IgG2Fc tag) (SARS-CoV-2), P0DTC2; assay: column not explained; likely FACS, S1 RBD on Vero E6
[6] = molecular target: SARS-COV2-S1 RBD (mouse IgG2Fc tag) (SARS-CoV-2), P0DTC2; assay: FACS, S1 RBD-mFc on Vero E6 (ACE2)
[7] = molecular target: SARS-COV2-S1 RBD (mouse IgG2Fc tag) (SARS-CoV-2), P0DTC2; assay: FACS, blocks S1 RBD-mFc binding to ACE2 on Vero E6

B1: variant 6-81 (Fc fusion)
VHH: EVQLVESGGGLVQPGGSLRLSCAASGFIGNYHAMGWFRQAPGKEREFVAAVTWSGGTTNYADSVKGRFTISADNSKNTAYLQMNSLKPEDTAVYYCAREGYYYDSSGYPYYFDYWGQGTLVTVSS
[1]
  Kd: 3.9 nM
[2]
  IC50: 1.38 nM
[3]
  Kd: 3.9 nM

B2: variant 5-50 (Fc fusion)
VHH: EVQLVESGGGLVQPGGSLRLSCAASGFSLDYYGMGWFRQAPGKEREFVAAITSGGTPHYADSVKGRFTISADNSKNTAYLQMNSLKPEDTAVYYCASAYNPGIGYDWGQGTLVTVSS
[3]
  Kd: 3.8 nM
[4]
  IC50: 1.61 nM

B3: variant 6-3 (Fc fusion)
VHH: EVQLVESGGGLVQPGGSLRLSCAASGFTFSPSWMGWFRQAPGKEREFVATINEYGGRNYADSVKGRFTISADNSKNTAYLQMNSLKPEDTAVYYCARVDRDFDYWGQGTLVTVSS
[5]
  MFI Fold Decrease: 9.51 fold
[6]
  Competition Factor: 9.51
[7]
  IC50: 0.74 nM

From US20210355194A1
